Test results as given in the supplement of paper PMC11316812.
± gives the standard deviation of the averaged measurements.

Assays:
MCF7 = experiment: percentage of EdU-negative (G0-arrested) nuclei per well, 72 h; higher = more G0 arrest; settings: reference: sequence is the full UniProt precursor, the tested protein was the secreted form or ectodomain
hTERT-HMEC = experiment: as above; settings: reference: sequence is the full UniProt precursor, the tested protein was the secreted form or ectodomain
[1] = protein concentration 0.0225 µM
[2] = protein concentration 0.01025 µM
[3] = protein concentration 0.1025 µM
[4] = protein concentration 0.0357143 µM
[5] = protein concentration 0.357143 µM
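Also: secreted proteins added to cultured cells, EdU pulse at the end, nuclei found by Hoechst imaging, EdU status from nuclear versus surrounding ring intensity ratio, PBS as neutral control.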

| Sequence | percentage of EdU-negative (MCF7; [1]) [%] | percentage of EdU-negative (MCF7; protein concentration 0.225 µM) [%] | percentage of EdU-negative (hTERT-HMEC; [1]) [%] | percentage of EdU-negative (hTERT-HMEC; protein concentration 0.225 µM) [%] | further results |
| --- | --- | --- | --- | --- | --- |
| MMGLFPRTTGALAIFVVVILVHGELRIETKGQYDEEEMTMQQAKRRQKREWVKFAKPCREGEDNSKRNPIAKITSDYQATQKITYRISGVGIDQPPFGIFVVDKNTGDINITAIVDREETPSFLITCRALNAQGLDVEKPLILTVKILDINDNPPVFSQQIFMGEIEENSASNSLVMILNATDADEPNHLNSKIAFKIVSQEPAGTPMFLLSRNTGEVRTLTNSLDREQASSYRLVVSGADKDGEGLSTQCECNIKVKDVNDNFPMFRDSQYSARIEENILSSELLRFQVTDLDEEYTDNWLAVYFFTSGNEGNWFEIQTDPRTNEGILKVVKALDYEQLQSVKLSIAVKNKAEFHQSVISRYRVQSTPVTIQVINVREGIAFRPASKTFTVQKGISSKKLVDYILGTYQAIDEDTNKAASNVKYVMGRNDGGYLMIDSKTAEIKFVKNMNRDSTFIVNKTITAEVLAIDEYTGKTSTGTVYVRVPDFNDNCPTAVLEKDAVCSSSPSVVVSARTLNNRYTGPYTFALEDQPVKLPAVWSITTLNATSALLRAQEQIPPGVYHISLVLTDSQNNRCEMPRSLTLEVCQCDNRGICGTSYPTTSPGTRYGRPHSGRLGPAAIGLLLLGLLLLLLAPLLLLTCDCGAGSTGGVTGGFIPVPDGSEGTIHQWGIEGAHPEDKEITNICVPPVTANGADFMESSEVCTNTYARGTAVEGTSGMEMTTKLGAATESGGAAGFATGTVSGAASGFGAATGVGICSSGQSGTMRTRHSTGGTNKDYADGAISMNFLDSYFSQKAFACAEEDDGQEANDCLLIYDNEGADATGSPVGSVGCCSFIADDLDDSFLDSLGPKFKKLAEISLGVDGEGKEVQPPSKDSGYGIESCGHPIEVQQTGFVKCQTLSGSQGASALSTSGSVQPAVSIPDPLQHGNYLVTETYSASGSLVQPSTAGFDPLLTQNVIVTERVICPISSVPGNLAGPTQLRGSHTMLCTEDPCSRLI | 27.7 ± 0.58 | 33.34 ± 0.16 | 4.88 ± 0.17 | 13.7 ± 2.7 | – |
| MMLHSALGLCLLLVTVSSNLAIAIKKEKRPPQTLSRGWGDDITWVQTYEEGLFYAQKSKKPLMVIHHLEDCQYSQALKKVFAQNEEIQEMAQNKFIMLNLMHETTDKNLSPDGQYVPRIMFVDPSLTVRADIAGRYSNRLYTYEPRDLPLLIENMKKALRLIQSEL [Q8TD06] | 26.1 ± 2.8 | 24.6 ± 0.5 | 5.91 ± 1.9 | 6.43 ± 1.1 | – |
| MMLRLLSSLLLVAVASGYGPPSSHSSSRVVHGEDAVPYSWPWQVSLQYEKSGSFYHTCGGSLIAPDWVVTAGHCISRDLTYQVVLGEYNLAVKEGPEQVIPINSEELFVHPLWNRSCVACGNDIALIKLSRSAQLGDAVQLASLPPAGDILPNKTPCYITGWGRLYTNGPLPDKLQQARLPVVDYKHCSRWNWWGSTVKKTMVCAGGYIRSGCNGDSGGPLNCPTEDGGWQVHGVTSFVSAFGCNFIWKPTVFTRVSAFIDWIEETIASH | – | – | – | – | percentage of EdU-negative (MCF7; [2]): 25.2 ± 3%; percentage of EdU-negative (MCF7; [3]): 24.7 ± 1.6%; percentage of EdU-negative (hTERT-HMEC; [2]): 5.71 ± 1.5%; percentage of EdU-negative (hTERT-HMEC; [3]): 5.66 ± 0.78% |
| MMLRLLSSLLLVAVASGYGPPSSRPSSRVVNGEDAVPYSWPWQVSLQYEKSGSFYHTCGGSLIAPDWVVTAGHCISSSRTYQVVLGEYDRAVKEGPEQVIPINSGDLFVHPLWNRSCVACGNDIALIKLSRSAQLGDAVQLASLPPAGDILPNETPCYITGWGRLYTNGPLPDKLQEALLPVVDYEHCSRWNWWGSSVKKTMVCAGGDIRSGCNGDSGGPLNCPTEDGGWQVHGVTSFVSAFGCNTRRKPTVFTRVSAFIDWIEETIASH | – | – | – | – | percentage of EdU-negative (MCF7; protein concentration 0.022 µM): 25.2 ± 2.1%; percentage of EdU-negative (MCF7; protein concentration 0.22 µM): 29.66 ± 0.19%; percentage of EdU-negative (hTERT-HMEC; protein concentration 0.022 µM): 5.18 ± 0.89%; percentage of EdU-negative (hTERT-HMEC; protein concentration 0.22 µM): 8.27 ± 2% |
| MMLRVLVGAVLPAMLLAAPPPINKLALFPDKSAWCEAKNITQIVGHSGCEAKSIQNRACLGQCFSYSVPNTFPQSTESLVHCDSCMPAQSMWEIVTLECPGHEEVPRVDKLVEKILHCSCQACGKEPSHEGLSVYVQGEDGPGSQPGTHPHPHPHPHPGGQTPEPEDPPGAPHTEEEGAED | 25.6 ± 1.4 | 24.7 ± 0.79 | 5.79 ± 0.84 | 5.88 ± 0.42 | – |
| MMPKHCFLGFLISFFLTGVAGTQSTHESLKPQRVQFQSRNFHNILQWQPGRALTGNSSVYFVQYKIMFSCSMKSSHQKPSGCWQHISCNFPGCRTLAKYGQRQWKNKEDCWGTQELSCDLTSETSDIQEPYYGRVRAASAGSYSEWSMTPRFTPWWETKIDPPVMNITQVNGSLLVILHAPNLPYRYQKEKNVSIEDYYELLYRVFIINNSLEKEQKVYEGAHRAVEIEALTPHSSYCVVAEIYQPMLDRRSQRSEERCVEIP [Q969J5] | 24.1 ± 0.85 | 27.2 ± 3 | 4.89 ± 0.64 | 5.48 ± 0.17 | – |
| MMQKLLKCSRLVLALALILVLESSVQGYPTRRARYQWVRCNPDSNSANCLEEKGPMFELLPGESNKIPRLRTDLFPKTRIQDLNRIFPLSEDYSGSGFGSGSGSGSGSGSGFLTEMEQDYQLVDESDAFHDNLRSLDRNLPSDSQDLGQHGLEEDFML | 24.3 ± 3.3 | 26 ± 1.7 | 5.29 ± 0.12 | 5.72 ± 0.97 | – |
| MMRCCRRRCCCRQPPHALRPLLLLPLVLLPPLAAAAAGPNRCDTIYQGFAECLIRLGDSMGRGGELETICRSWNDFHACASQVLSGCPEEAAAVWESLQQEARQAPRPNNLHTLCGAPVHVRERGTGSETNQETLRATAPALPMAPAPPLLAAALALAYLLRPLA [Q496H8] | 24.2 ± 1.7 | 23.3 ± 0.52 | 4.98 ± 0.36 | 5.04 ± 1.6 | – |
| MMRTCVLLSAVLWCLTGVQCPRFTLFNKKGFIYGKTGQPDKIYVELHQNSPVLICMDFKLSKKEIVDPTYLWIGPNEKTLTGNNRINITETGQLMVKDFLEPLSGLYTCTLSYKTVKAETQEEKTVKKRYDFMVFAYREPDYSYQMAVRFTTRSCIGRYNDVFFRVLKKILDSLISDLSCHVIEPSYKCHSVEIPEHGLIHELFIAFQVNPFAPGWKGACNGSVDCEDTTNHNILQARDRIEDFFRSQAYIFYHNFNKTLPAMHFVDHSLQVVRLDSCRPGFGKNERLHSNCASCCVVCSPATFSPDVNVTCQTCVSVLTYGAKSCPQTSNKNQQYED [Q6X784] | – | – | – | – | percentage of EdU-negative (MCF7; [4]): 24.6 ± 1.8%; percentage of EdU-negative (MCF7; [5]): 28.8 ± 3.5%; percentage of EdU-negative (hTERT-HMEC; [4]): 4.95 ± 0.69%; percentage of EdU-negative (hTERT-HMEC; [5]): 6.88 ± 0.23% |
| MMSFLLGAILTLLWAPTAQAEVLLQPDFNAEKFSGLWYVVSMASDCRVFLGKKDHLSMSTRAIRPTEEGGLHVHMEFPGADGCNQVDAEYLKVGSEGHFRVPALGYLDVRIVDTDYSSFAVLYIYKELEGALSTMVQLYSRTQDVSPQALKSFQDFYPTLGLPKDMMVMLPQSDACNPESKEAP [Q6UWW0] | 26.2 ± 2.2 | 25.9 ± 0.71 | 5.79 ± 0.094 | 6.89 ± 0.15 | – |
| MMSFVQKGSWLLLALLHPTIILAQQEAVEGGCSHLGQSYADRDVWKPEPCQICVCDSGSVLCDDIICDDQELDCPNPEIPFGECCAVCPQPPTAPTRPPNGQGPQGPKGDPGPPGIPGRNGDPGIPGQPGSPGSPGPPGICESCPTGPQNYSPQYDSYDVKSGVAVGGLAGYPGPAGPPGPPGPPGTSGHPGSPGSPGYQGPPGEPGQAGPSGPPGPPGAIGPSGPAGKDGESGRPGRPGERGLPGPPGIKGPAGIPGFPGMKGHRGFDGRNGEKGETGAPGLKGENGLPGENGAPGPMGPRGAPGERGRPGLPGAAGARGNDGARGSDGQPGPPGPPGTAGFPGSPGAKGEVGPAGSPGSNGAPGQRGEPGPQGHAGAQGPPGPPGINGSPGGKGEMGPAGIPGAPGLMGARGPPGPAGANGAPGLRGGAGEPGKNGAKGEPGPRGERGEAGIPGVPGAKGEDGKDGSPGEPGANGLPGAAGERGAPGFRGPAGPNGIPGEKGPAGERGAPGPAGPRGAAGEPGRDGVPGGPGMRGMPGSPGGPGSDGKPGPPGSQGESGRPGPPGPSGPRGQPGVMGFPGPKGNDGAPGKNGERGGPGGPGPQGPPGKNGETGPQGPPGPTGPGGDKGDTGPPGPQGLQGLPGTGGPPGENGKPGEPGPKGDAGAPGAPGGKGDAGAPGERGPPGLAGAPGLRGGAGPPGPEGGKGAAGPPGPPGAAGTPGLQGMPGERGGLGSPGPKGDKGEPGGPGADGVPGKDGPRGPTGPIGPPGPAGQPGDKGEGGAPGLPGIAGPRGSPGERGETGPPGPAGFPGAPGQNGEPGGKGERGAPGEKGEGGPPGVAGPPGGSGPAGPPGPQGVKGERGSPGGPGAAGFPGARGLPGPPGSNGNPGPPGPSGSPGKDGPPGPAGNTGAPGSPGVSGPKGDAGQPGEKGSPGAQGPPGAPGPLGIAGITGARGLAGPPGMPGPRGSPGPQGVKGESGKPGANGLSGERGPPGPQGLPGLAGTAGEPGRDGNPGSDGLPGRDGSPGGKGDRGENGSPGAPGAPGHPGPPGPVGPAGKSGDRGESGPAGPAGAPGPAGSRGAPGPQGPRGDKGETGERGAAGIKGHRGFPGNPGAPGSPGPAGQQGAIGSPGPAGPRGPVGPSGPPGKDGTSGHPGPIGPPGPRGNRGERGSEGSPGHPGQPGPPGPPGAPGPCCGGVGAAAIAGIGGEKAGGFAPYYGDEPMDFKINTDEIMTSLKSVNGQIESLISPDGSRKNPARNCRDLKFCHPELKSGEYWVDPNQGCKLDAIKVFCNMETGETCISANPLNVPRKHWWTDSSAEKKHVWFGESMDGGFQFSYGNPELPEDVLDVHLAFLRLLSSRASQNITYHCKNSIAYMDQASGNVKKALKLMGSNEGEFKAEGNSKFTYTVLEDGCTKHTGEWSKTVFEYRTRKAVRLPIVDIAPYDIGGPDQEFGVDVGPVCFL | 26.55 ± 0.19 | 27.4 ± 1.2 | 4.96 ± 0.66 | 6.99 ± 0.87 | – |
| MMVVLLGATTLVLVAVAPWVLSAAAGGKNLKSPQKVEVDIIDDNFILRWNRSDESVGNVTFSFDYQKTGMDNWIKLSGCQNITSTKCNFSSLKLNVYEEIKLRIRAEKENTSSWYEVDSFTPFRKAQIGPPEVHLEAEDKAIVIHISPGTKDSVMWALDGLSFTYSLVIWKNSSGVEERIENIYSRHKIYKLSPETTYCLKVKAALLTSWKIGVYSPVHCIKTTVENELPPPENIEVSVQNQNYVLKWDYTYANMTFQVQWLHAFLKRNPGNHLYKWKQIPDCENVKTTQCVFPQNVFQKGIYLLRVQASDGNNTSFWSEEIKFDTEIQAFLLPPVFNIRSLSDSFHIYIGAPKQSGNTPVIQDYPLIYEIIFWENTSNAERKIIEKKTDVTVPNLKPLTVYCVKARAHTMDEKLNKSSVFSDAVCEKTKPGNTSKIWLIVGICIALFALPFVIYAAKVFLRCINYVFFPSLKPSSSIDEYFSEQPLKNLLLSTSEEQIEKCFIIENISTIATVEETNQTDEDHKKYSSQTSQDSGNYSNEDESESKTSEELQQDFV | – | – | – | – | percentage of EdU-negative (MCF7; [4]): 23.4 ± 0.79%; percentage of EdU-negative (MCF7; [5]): 31.7 ± 1.5%; percentage of EdU-negative (hTERT-HMEC; [4]): 4.55 ± 0.7%; percentage of EdU-negative (hTERT-HMEC; [5]): 5.5 ± 0.82% |
| MMWPMHTPLLLLTALMVAVAGSASAQSRTLAGGIHATDLNDKSVQCALDFAISEYNKVINKDEYYSRPLQVMAAYQQIVGGVNYYFNVKFGRTTCTKSQPNLDNCPFNDQPKLKEEEFCSFQINEVPWEDKISILNYKCRKV | 25.28 ± 0.24 | 25.3 ± 2 | 4.35 ± 0.28 | 6.17 ± 0.2 | – |
| MNAFLLSALCLLGAWAALAGGVTVQDGNFSFSLESVKKLKDLQEPQEPRVGKLRNFAPIPGEPVVPILCSNPNFPEELKPLCKEPNAQEILQRLEEIAEDPGTCEICAYAACTGC | 27.03 ± 0.26 | 24.3 ± 0.35 | 5.03 ± 0.081 | 5.29 ± 0.21 | – |
